Test results from paper PMC4786781.

Target: T1, Spo0J R82A (Bacillus subtilis, UniProt P26497 1-282, R82A)
T1 sequence: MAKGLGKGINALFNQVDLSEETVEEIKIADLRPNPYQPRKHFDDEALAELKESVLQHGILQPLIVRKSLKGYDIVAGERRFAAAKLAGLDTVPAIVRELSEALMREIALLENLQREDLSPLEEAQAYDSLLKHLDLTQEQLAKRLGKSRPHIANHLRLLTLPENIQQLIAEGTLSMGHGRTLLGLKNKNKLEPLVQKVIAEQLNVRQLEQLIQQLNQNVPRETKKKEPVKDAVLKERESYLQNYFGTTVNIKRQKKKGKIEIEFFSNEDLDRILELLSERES
Assay: white light interferometry (BLItz), Hill fit (n=1.9±0.5); 150 mM NaCl, 0.02% Tween-20; apparent Kd; PIFE: 20 mM Tris pH 7.5, 100 ug/ml BSA, 100 mM NaCl (150 mM for Spo0J R82A Kd), flow 100 ul/min; BLItz: 20 mM Tris pH 7.5, 150 mM NaCl, 100 ug/ml BSA, 0.02% Twe

B1: 39-bp scrambled parS duplex (oTG044F/oTG043R) (dsDNA)
DNA 1: CAGTTGAATCTGACAAATGACTAACAATGAGAGCAAAAA
DNA 2: TTTTTGCTCTCATTGTTAGTCATTTGTCAGATTCAACTG
B1 was tested, and the Kd was 131 ± 24.3 nM.
